Measured values as given in the supplement of paper PMC7125110.
± gives the standard error. For some of these results: Fewer inactive variants are shown than the library holds.

B1: glmS ribozyme (parent)
chain: AUAAAAGCGCCAGAACUACAGAAAUGUAGUUGACGAGGAGGAGGUUUAUCGAAUUUUCGGCGGAUGCCUCCAAA

Columns and labels:
Conditions in all cases: with glucosamine-6-phosphate
glucosamine-6-phosphate [1] = variants of: B1; assay: kcat; higher = faster cleavage; RNA array
Outline: (§1)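 Sequenced MiSeq chips were the platform: E. coli RNA polymerase transcribed barcoded ribozyme variants on them in situ, and a hybridised Cy3 probe tracked these at 37 °C. After glucosamine-6-phosphate (40 μM to 10 mM) in HEPES/KCl/Mg(OAc)2 buffer was flowed in, tiles were imaged over ~14 h. Signals normalised to baseline and to non-cleaving reference variants were reduced to per-tile medians and fit to one- or two-exponential decays to obtain kobs. kcat and KM were derived through weighted Michaelis–Menten fits across concentrations.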

glucosamine-6-phosphate [2] = variants of: B1; assay: KM; higher = weaker cofactor use; RNA array
Outline: as §1

glucosamine-6-phosphate [3] = variants of: B1; assay: self-cleavage kobs at 640 uM GlcN6P; higher = faster cleavage; RNA array
Outline: as §1

glucosamine-6-phosphate [4] = variants of: B1; assay: self-cleavage kobs at 2500 uM GlcN6P; higher = faster cleavage; RNA array
Outline: as §1

glucosamine-6-phosphate [5] = variants of: B1; assay: self-cleavage kobs at 10000 uM GlcN6P; higher = faster cleavage; RNA array
Outline: as §1

glucosamine-6-phosphate [6] = variants of: B1; assay: self-cleavage kobs at 40 uM GlcN6P; higher = faster cleavage; RNA array
Outline: as §1

glucosamine-6-phosphate [7] = variants of: B1; assay: self-cleavage kobs at 160 uM GlcN6P; higher = faster cleavage; RNA array
Outline: as §1

Variant	kcat (glucosamine-6-phosphate [1]) [s⁻¹]	KM (glucosamine-6-phosphate [2]) [µM]	self-cleavage kobs at 640 uM GlcN6P (glucosamine-6-phosphate [3]) [s⁻¹]	self-cleavage kobs at 2500 uM GlcN6P (glucosamine-6-phosphate [4]) [s⁻¹]	self-cleavage kobs at 10000 uM GlcN6P (glucosamine-6-phosphate [5]) [s⁻¹]	self-cleavage kobs at 40 uM GlcN6P (glucosamine-6-phosphate [6]) [s⁻¹]	self-cleavage kobs at 160 uM GlcN6P (glucosamine-6-phosphate [7]) [s⁻¹]
G37A G40C	0.000207 ± 4.1e-05	2180 ± 880	4.22e-05 ± 1.3e-05	0.00015 ± 3.5e-05	0.000157 ± 3.4e-05		
G29U G32C G43U A53U	1.74e-05 ± 3.6e-06	9610 ± 3900				< 1e-05	
U31C U47G	0.000887 ± 0.00023	1440 ± 640	0.000292 ± 4.5e-05	0.000426 ± 7e-05	0.00102 ± 0.00013	3.36e-05 ± 9.1e-06	8.85e-05 ± 1.5e-05
G35A G43C	< 1e-05				< 1e-05		< 1e-05
C16A A39G	0.00326 ± 0.00026	2130 ± 240	0.000731 ± 0.00012	0.00177 ± 0.00034	0.00273 ± 0.00053	6.75e-05 ± 1.4e-05	0.000212 ± 5.3e-05
U49G	0.00147 ± 0.00022	2840 ± 550	0.000258 ± 7.3e-06	0.000807 ± 4.3e-05	0.00113 ± 4.5e-05	2.57e-05 ± 1.3e-06	7.59e-05 ± 2.5e-06
A6G G29U	8.41e-05 ± 9.3e-06	3850 ± 1100		3.54e-05 ± 1e-05	6.03e-05 ± 9e-06		
U56G C58G	0.000173 ± 4.6e-06	1800 ± 110	4.42e-05 ± 1e-05	0.000103 ± 1.4e-05	0.000145 ± 2.1e-05		
C16A U56C	0.000253 ± 8.5e-06	1940 ± 160	6.38e-05 ± 1.8e-05	0.000144 ± 3.2e-05	0.000211 ± 3.4e-05	< 1e-05	
U56C U65G	0.000503 ± 9.7e-05			0.000206 ± 7.7e-05	0.00041 ± 8.6e-05		
G37A A39G	0.00599 ± 0.00079	3900 ± 740	0.00068 ± 0.00012	0.00235 ± 0.0003	0.00437 ± 0.00039	6.85e-05 ± 7.9e-06	0.000243 ± 4.5e-05
G41C C71A	0.000115 ± 2e-05		5.78e-05 ± 1.1e-05	0.000181 ± 2.7e-05	0.000103 ± 8.1e-06		
G38U A53C C70U	< 1e-05			< 1e-05			
G38C C50U	< 1e-05		< 1e-05		< 1e-05		< 1e-05
G38C C50G	1.28e-05 ± 1.9e-06						
G29A G44A	1.73e-05 ± 3.5e-06					< 1e-05	
U31G G40C	0.00108 ± 0.00013	1280 ± 250	0.000397 ± 5.8e-05	0.000864 ± 0.00017	0.0009 ± 0.00012	2.49e-05 ± 8e-06	0.000124 ± 2e-05

Variant	kcat (glucosamine-6-phosphate [1]) [s⁻¹]	KM (glucosamine-6-phosphate [2]) [µM]	self-cleavage kobs at 640 uM GlcN6P (glucosamine-6-phosphate [3]) [s⁻¹]	self-cleavage kobs at 2500 uM GlcN6P (glucosamine-6-phosphate [4]) [s⁻¹]	self-cleavage kobs at 10000 uM GlcN6P (glucosamine-6-phosphate [5]) [s⁻¹]	self-cleavage kobs at 40 uM GlcN6P (glucosamine-6-phosphate [6]) [s⁻¹]	self-cleavage kobs at 160 uM GlcN6P (glucosamine-6-phosphate [7]) [s⁻¹]
U54A A64U	0.000124 ± 1.2e-05		7.79e-05 ± 2.6e-05	7.51e-05 ± 2.5e-05	0.00012 ± 1.1e-05		
C11A U54C	0.000278 ± 3.7e-05	4640 ± 1100	3.08e-05 ± 1e-05	0.00011 ± 2.9e-05	0.000186 ± 3.4e-05		
U45A A53U	0.054 ± 0.013	1720 ± 500	0.0162 ± 0.0071	0.0671 ± 0.03	0.0432 ± 0.012	0.00125 ± 0.00017	0.00351 ± 0.0016
A12C G37A	0.00391 ± 0.0011	2210 ± 860	0.000756 ± 0.00011	0.00182 ± 0.00028	0.00402 ± 0.00063	8.92e-05 ± 1.1e-05	0.000248 ± 4e-05
A15U C58U	8.55e-05 ± 9.3e-06	3320 ± 980		3.46e-05 ± 8.3e-06	6.48e-05 ± 8.4e-06		
A15U C58A	0.000154 ± 5.6e-06	3640 ± 360		6.38e-05 ± 1.2e-05	0.000113 ± 1e-05		
U30C G63U	1.08e-05 ± 3e-06				< 1e-05		
G29U U57C	6.81e-05 ± 7.7e-06	3360 ± 1100		2.73e-05 ± 7.7e-06	5.13e-05 ± 6.5e-06		
A42U C67G	0.000997 ± 0.00019	853 ± 310	0.000369 ± 4.9e-05	0.00082 ± 0.00012	0.000939 ± 8.5e-05	6.76e-05 ± 8.5e-06	0.000114 ± 2.5e-05
G13U C70A	3.03e-05 ± 5.4e-06		3.7e-05 ± 1.1e-05	3.54e-05 ± 9.8e-06	2.01e-05 ± 1e-05		
U30A U45A C50U	< 1e-05						< 1e-05
U31G A36U	< 1e-05		< 1e-05		< 1e-05		
U57G U69A	3.67e-05 ± 1.4e-05		5.54e-05 ± 2.1e-05				
G37A G44U	8.09e-05 ± 2.1e-05			4.71e-05 ± 9.1e-06	5.95e-05 ± 2.3e-05		< 1e-05
G40A U55C	0.0017 ± 0.00029	1980 ± 650	0.00035 ± 0.0001	0.00119 ± 0.00036	0.0014 ± 0.00025	4.24e-05 ± 1.5e-05	
G40C U65A	0.000379 ± 3.9e-05	1830 ± 350	0.0001 ± 1.9e-05	0.000199 ± 3.6e-05	0.000346 ± 6.3e-05		3.58e-05 ± 1.5e-05
